From the supplement of paper PMC11908140

B1: library; numbered along this chain (parent)
chain: MRKPRAAVGSGHRKQAASQEGRQKHAKNNSQAKPSACDGLARQPEEVVLQASVSSYHLFRDVAEVTAFRGSLLSWYDQEKRDLPWRRRAEDEMDLDRRAYAVWVSEVMLQQTQVATVINYYTGWMQKWPTLQDLASASLEEVNQLWAGLGYYSRGRRLQEGARKVVEELGGHMPRTAETLQQLLPGVGRYTAGAIASIAFGQATGVVDGNVARVLCRVRAIGADPSSTLVSQQLWGLAQQLVDPARPGDFNQAAMELGATVCTPQRPLCSQCPVESLCRARQRVEQEQLLASGSLSGSPDVEECAPNTGQCHLCLPPSEPWDQTLGVVNFPRKASRKPPREESSATCVLEQPGALGAQILLVQRPNSGLLAGLWEFPSVTWEPSEQLQRKALLQELQRWAGPLPATHLRHLGEVVHTFSHIKLTYQVYGLALEGQTPVTTVPPGARWLTQEEFHTAAVSTAMKKVFRVYQGQQPGTCMGSKRSQVSSPCSRKKPRMGQQVLDNFFRSHISTDAHSLNSAAQ

Variants of: B1
Test: 8OG:A repair function score (normalized; synonymous = 0, nonsense = -1) (normalized log-likelihood score); higher = more repair activity (WT-like)
Details: with 8OG:A DNA repair reporter (GFP) in HEK-293 MUTYH KO cells
In short: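 Per-tile Rosace fitness scores were converted to a normalized repair function score anchored on synonymous and nonsense distributions. That scale puts synonymous medians at 0 and nonsense medians at -1. Variants with starting counts under 300 counts per million were discarded. Input came from sorting viable mCherry+ MUTYH knockout HEK-293 cells, carrying lentiviral MUTYH cDNA NNN codon-scan libraries in 10 pg/ml doxycycline and an 8OG:A GFP repair reporter, into GFP+ and GFP− bins at 72 h, three replicates per tile, followed by tile amplicon sequencing.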
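Further: cells sorted at 72 h after reporter transfection.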

Row | Variant | 8OG:A repair function score
1 | R246Q | -0.476
2 | R246K | -0.495
3 | R246Y | -0.517
4 | R246S | -0.535
5 | R246L | -0.719
6 | R246W | -0.645
7 | R246N | -0.471
8 | R246F | -0.68
9 | R246M | -0.559
10 | R246H | -0.449
11 | R246I | -0.836
12 | R246E | -0.696
13 | R246T | -0.728
14 | R246C | -0.646
15 | R246V | -0.732
16 | R246G | -0.845
17 | R246P | -0.964
18 | R246A | -0.605
19 | R246D | -0.657
20 | D243V | -0.767
21 | D243C | -0.276
22 | D243N | -0.739
23 | D243Q | -0.829
24 | D243F | -0.786

Row | Variant | 8OG:A repair function score
25 | D243L | -0.818
26 | D243P | -0.554
27 | D243A | -0.387
28 | D243G | -0.755
29 | D243Y | -0.667
30 | D243R | -0.99
31 | D243K | -0.914
32 | D243M | -0.753
33 | D243H | -0.31
34 | D243T | -0.727
35 | D243I | -0.858
36 | D243W | -0.67
37 | D243E | -0.293
38 | D243S | -0.358
39 | G248F | -0.958
40 | G248E | -0.978
41 | G248K | -0.801
42 | G248Y | -0.996
43 | G248W | -0.937
44 | G248H | -0.883
45 | G248L | -1.01
46 | G248M | -0.879
47 | G248A | -0.729
48 | G248Q | -0.882

Row | Variant | 8OG:A repair function score
49 | G248D | -0.876
50 | G248I | -1.02
51 | G248S | -0.709
52 | G248V | -0.998
53 | G248P | -0.995
54 | G248R | -0.738
55 | G248T | -0.939
56 | G248C | -0.885
57 | G248N | -0.871
58 | P244F | -0.422
59 | P244S | -0.232
60 | P244I | -0.574
61 | P244Y | -0.542
62 | P244L | -0.398
63 | P244V | -0.427
64 | P244E | -0.105
65 | P244W | -0.457
66 | P244Q | -0.604
67 | P244A | -0.238
68 | P244H | -0.418
69 | P244K | 0.065
70 | P244C | -0.39
71 | P244G | -0.385
72 | P244N | -0.467

Row | Variant | 8OG:A repair function score
73 | P244T | -0.234
74 | P244D | -0.291
75 | P244R | -0.145
76 | V242H | -0.806
77 | V242G | -0.916
78 | V242P | -0.961
79 | V242S | -0.772
80 | V242W | -1.01
81 | V242C | -0.39
82 | V242N | -0.576
83 | V242T | -0.488
84 | V242D | -0.978
85 | V242M | -0.625
86 | V242E | -0.964
87 | V242L | -0.288
88 | V242K | -0.949
89 | V242A | -0.526
90 | V242F | -0.874
91 | V242Q | -0.763
92 | V242I | 0.0144
93 | V242Y | -0.964
94 | V242R | -0.886
95 | F250D | -1.01
96 | F250C | -0.435

Row | Variant | 8OG:A repair function score
97 | F250A | -0.516
98 | F250E | -1.03
99 | P247Y | -1.04
100 | P247T | -0.856
101 | P247I | -0.969
102 | P247E | -0.987
103 | P247K | -1.03
104 | P247Q | -0.968
105 | P247S | -0.584
106 | P247D | -1.03
107 | P247M | -0.978
108 | P247W | -1.03
109 | P247A | -0.379
110 | P247N | -1
111 | P247V | -0.95
112 | P247L | -1.02
113 | P247F | -1.01
114 | P247C | -0.799
115 | P247R | -1
116 | P247G | -0.799
117 | P247H | -0.982
118 | D249T | -0.459
119 | D249P | -0.588
120 | D249L | -0.649

Row | Variant | 8OG:A repair function score
121 | D249K | -0.584
122 | D249V | -0.579
123 | D249Q | -0.428
124 | D249S | -0.402
125 | D249R | -0.663
126 | D249A | -0.31
127 | D249E | -0.208
128 | D249F | -0.75
129 | D249C | -0.396
130 | D249M | -0.419
131 | D249N | -0.673
132 | D249H | -0.28
133 | D249I | -0.596
134 | D249W | -0.851
135 | D249Y | -0.608
136 | D249G | -0.675
137 | A245E | 0.644
138 | A245N | -0.0246
139 | A245G | 0.0269
140 | A245W | -0.0373
141 | A245C | -0.113
142 | A245M | -0.146
143 | A245L | 0.157
144 | A245H | -0.134

Row | Variant | 8OG:A repair function score
145 | A245Q | 0.0913
146 | A245R | -0.124
147 | A245D | 0.223
148 | A245K | -0.0553
149 | A245V | 0.000414
150 | A245P | -0.612
151 | A245F | 0.00779
152 | A245I | -0.104
153 | A245S | 0.0557
154 | A245T | -0.0132
155 | A245Y | -0.107
156 | L241K | -1.01
157 | L241Q | -0.948
158 | L241S | -0.626
159 | L241N | -0.946
160 | L241W | -0.384
161 | L241T | -0.51
162 | L241V | -0.358
163 | L241I | -0.264
164 | L241M | -0.522
165 | L241P | -0.994
166 | L241Y | -0.893
167 | L241R | -1.03
